According to patent US20160039904A1, “STABILIZED SINGLE HUMAN CD4 DOMAINS AND FUSION PROTEINS” (priority 2013, published 2016):

What was measured:
Format in all cases: cell-based
HIV-1 Env Bal = assay: HIV-1 Env-mediated cell-cell fusion; conditions: Table 4, clade B, R5
HIV-1 Env JRFL = assay: HIV-1 Env-mediated cell-cell fusion; conditions: Table 4, clade B, R5
HIV-1 Bal = assay: Pseudotyped HIV-1 neutralization (HOS-CD4-CCR5 cells); conditions: Table 2, clade B, R5
Method: (§1) To determine the potency and breadth of HIV-1 neutralization by the D1 mutants, viruses pseudotyped with Envs from HIV-1 isolates representing clades A-E and using either CCR5 (R5) or CXCR4 (X4) or both (R5X4) as a coreceptor were included. Pseudoviruses were derived from 293T cells and a neutralization assay was performed in duplicate using HOS-CD4-CCR5 (for all R5 and dual tropic viruses) or HOS-CD4-CXCR4 cell lines as described in Chen et al., Proc. Natl. Acad. Sci. USA, 105: 17121-17126 (2008)). Luminescence was measured 48 hours post-infection and the percentage neutralization was calculated by the following formula: (1—average RLU of inhibitor-containing wells/average RLU or virus-only wells)×100.

HIV-1 JRFL = assay: as above; conditions: Table 2, clade B, R5
Method: as §1

B1: m36.4: engineered single human antibody domain targeting a CD4i epitope on HIV-1 gp120, SEQ ID NO: 15 (antibody, V domains shown)
VH: QVQLVQSGGGLVQPGGSLRLSCAASAFDFSDYEMSWVREAPGKGLEWIGEINDSGNTIYNPSLKSRVTISRDNSKNTLYLQMNTLRAEDTAIYYCAIYGGNSGGEYWGQGTLVTVSS
HIV-1 Env Bal
  IC90: 235 nM
HIV-1 Env JRFL
  IC50: 128 nM
  IC90: 1080 nM
HIV-1 Bal
  IC50: 16 nM
  IC90: 75 nM
HIV-1 JRFL
  IC50: 18 nM
  IC90: 106 nM
